Experimental findings from patent US20260070986A1 (AFFIMED, published 2026) are described below.

Test [1] addresses T1, recombinant murine FcγRIIB (CD32), biotinylated (murine, UniProt P08101 30-207, limits assumed, site-directed biotinylation at AviTag).
T1 construct: also called murine CD32B; mouse CD32B
T1 sequence (looked up): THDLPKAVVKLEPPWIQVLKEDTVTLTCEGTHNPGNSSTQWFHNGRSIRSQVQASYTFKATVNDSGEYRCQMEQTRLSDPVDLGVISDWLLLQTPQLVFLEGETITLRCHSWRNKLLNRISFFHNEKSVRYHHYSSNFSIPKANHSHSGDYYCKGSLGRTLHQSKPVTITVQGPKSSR
Kind of test: SPR (Biacore T200), 37 C, biotin-captured receptor. As to the method: Sensor chips were pre-equilibrated in HBS-P+ running buffer for 12 hours prior to the first measurement and the detectors were normalized using BIAnormalization solution (70% w/w glycerol) according to the manufacturer's instructions.
Interaction analysis of FcRn binding was performed at pH 6.0 in PBS/0.05% Tween 20; analytes and ligands were diluted in the same buffer. […] Ligand-free surfaces in FC1 and FC3 were used as references for response signals (FC2-1, FC4-3). Interaction analysis of CD64, CD32, and murine CD16-2 binding was performed in HBS-P+ buffer and analytes and ligands were diluted in the same buffer. Biotinylated Fcγ-Receptors were captured to a density of approximately 15 to 30 RU (FC2, FC3, and FC4) before increasing concentrations (500 nM to 4000 nM) of antibody were injected, using the single-cycle kinetic mode (FC1-FC4) at a flow rate of 40 μL/min for 100 seconds followed by dissociation for 90 seconds. A zero-concentration cycle and ligand-free surface in FC1 was used for referencing of response signals (FC2-1, FC3-1, and FC4-1). Sensor chip surfaces were prepared and regenerated before and after each measurement using Biotin Capture reagent (Biotin CAPture Kit, GE Healthcare) and 6 M guanidine-HCl, 0.25 M NaOH, respectively.
Binding affinities were determined by fitting data using the steady state affinity model of the Biacore T200 Evaluation software (v3.1).
On the technique in general: Surface plasmon resonance follows binding to a sensor surface in real time, without labels.

In test [2] the target is T2, CD123 on CD123+ cells (EOL-1 and other CD123+ tumour or patient cells) (human, UniProt P26951 19-378).
T2 construct: whole, on cells; also called interleukin-3 receptor
T2 sequence (P26951 19-378): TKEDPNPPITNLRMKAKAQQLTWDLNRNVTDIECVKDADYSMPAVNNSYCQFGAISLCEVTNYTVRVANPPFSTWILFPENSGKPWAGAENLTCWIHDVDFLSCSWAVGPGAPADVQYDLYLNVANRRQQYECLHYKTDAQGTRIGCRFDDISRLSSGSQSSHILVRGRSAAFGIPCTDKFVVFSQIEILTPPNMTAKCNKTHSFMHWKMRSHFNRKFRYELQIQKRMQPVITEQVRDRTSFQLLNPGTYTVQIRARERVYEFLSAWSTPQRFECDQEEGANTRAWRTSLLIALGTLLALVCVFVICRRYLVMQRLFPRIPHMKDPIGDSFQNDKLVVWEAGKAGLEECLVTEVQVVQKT
Kind of test: flow cytometry on CD123+ EOL-1 cells, anti-human IgG-APC detection. As to the method:
To analyze binding of CD123xCD16A antibody constructs to CD123+ EOL-1 cells, CD123− A-431 cells and CD123− Karpas-299 cells by flow cytometry, 1×10⁵ cells were resuspended in 100 μL FACS buffer in round-bottom 96-well microtiter plates. After washing in FACS buffer, cells were incubated in 100 μL FACS buffer without antibodies or with titrated antibodies starting at a concentration of 100 μg/mL followed by eight 10-fold serial dilutions for 45 min on ice in the dark. After washing twice, cells were incubated with APC-conjugated goat anti-human IgG (H+L)-APC (1/200 dilution) for 30 min on ice in the dark. After washing, binding was measured by flow cytometry and mean fluorescence intensities (MFI) of cell samples were calculated and corrected for background staining using control cells stained with secondary antibodies only.

In test [3] the target is T3, recombinant murine FcγRI (CD64), biotinylated (murine, UniProt P26151 25-297, limits assumed, site-directed biotinylation at AviTag).
T3 construct: also called murine CD64; mouse CD64
T3 sequence (looked up): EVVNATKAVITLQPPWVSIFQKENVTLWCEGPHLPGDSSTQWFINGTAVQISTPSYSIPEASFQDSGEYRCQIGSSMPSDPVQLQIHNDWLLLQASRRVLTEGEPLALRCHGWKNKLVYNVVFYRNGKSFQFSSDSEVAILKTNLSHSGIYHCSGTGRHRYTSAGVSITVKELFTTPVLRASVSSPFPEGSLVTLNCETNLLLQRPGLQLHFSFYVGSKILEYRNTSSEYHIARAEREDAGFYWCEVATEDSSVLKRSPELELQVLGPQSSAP
Nature of the test: SPR (Biacore), 37 °C, biotin-captured murine CD64 as ligand, steady-state plot; left-hand column, no heading on the sheet. As to the method: FIG. 20: SPR interaction analysis of antibody binding to CD64 and murine CD16-2. […] Affinity parameters were evaluated for interaction with receptors using a Steady State Binding model.

B1: scFv-IgAb_268 (CD123-1xCD16a1) (bispecific antibody)
heavy: QVQLQQSGAEVKKPGASVKVSCKASGYTFTDYYMKWVKQSHGKSLEWMGDIIPSNGATFYNQKFKGKATLTVDRSTSTAYMELSSLRSEDTAVYYCARSHLLRASWFAYWGQGTLVTVSSASTKGPSVFPLAPSSKSTSGGTAALGCLVKDYFPEPVTVSWNSGALTSGVHTFPAVLQSSGLYSLSSVVTVPSSSLGTQTYICNVNHKPSNTKVDKKVEPKSCDKTHTCPPCPAPEFEGGPSVFLFPPKPKDTLMISRTPEVTCVVVAVSHEDPEVKFNWYVDGVEVHNAKTKPREEQYNSTYRVVSVLTVLHQDWLNGKEYKCKVSNKALPAPIEKTISKAKGQPREPQVYTLPPSREEMTKNQVSLTCLVKGFYPSDIAVEWESNGQPENNYKTTPPVLDSDGSFFLYSKLTVDKSRWQQGNVFSCSVMHEALHNHYTQKSLSLSPGGGGGSGGGGSGGGGSGGGGSGGGGSGGGGSSYELTQPLSVSVALGQTARITCGGNNIGSKSVHWYQQKPGQAPVLVIYQDKKRPSGIPERFSGSNSGNTATLTISRAQAGDEADYYCQVWDDYIVLFGCGTKLTVLGGSGGSGGSGGSGGSGGSGGSQVQLVQSGAEVKKPGASVKVSCKASGYTFTNYYMQWVRQAPGQCLEWMGIINPSGGVTSYAQKFQGRVTMTRDTSTSTVYMELSSLRSEDTAVYYCARGSAYYYDFADYWGQGTLVTVSS
light: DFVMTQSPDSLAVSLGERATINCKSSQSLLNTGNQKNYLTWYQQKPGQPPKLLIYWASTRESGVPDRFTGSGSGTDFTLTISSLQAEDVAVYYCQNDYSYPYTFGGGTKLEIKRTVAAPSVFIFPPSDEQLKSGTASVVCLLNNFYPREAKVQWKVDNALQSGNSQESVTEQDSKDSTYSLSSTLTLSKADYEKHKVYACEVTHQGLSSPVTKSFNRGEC
notes: also called AFM28; CD123xCD16A scFv-IgAb_268
For the molecule B1, the binding result is reported as “no binding (tested: 500 nM to 4000 nM)” in test [1] and “no binding (tested: 2e-6 M (last point visible))” in test [3]. Further, the EC50 (read off the curve) (in general, the concentration needed to bring the measured effect to its halfway point) in test [2] was ~0.4 nM.
